Measured values from paper PMC7955049, “ADAR1 RNA editing enzyme regulates R-loop formation and genome stability at telomeres in cancer cells” (Nature Communications, 2021).

Target: T1, FLAG-ADAR1p110-WT (UniProt P55265-5 1-931)
T1 construct: ADAR1 (ADAR, DRADA), nuclear p110 isoform, wild type; also called F-ADAR1p110-WT; F-ADAR1p110; source: HEK293T, stably expressing (p3XFLAG-CMV-10 plasmid co-transfected with pPUR), in lysate of formaldehyde-fixed cells
T1 sequence (looked up): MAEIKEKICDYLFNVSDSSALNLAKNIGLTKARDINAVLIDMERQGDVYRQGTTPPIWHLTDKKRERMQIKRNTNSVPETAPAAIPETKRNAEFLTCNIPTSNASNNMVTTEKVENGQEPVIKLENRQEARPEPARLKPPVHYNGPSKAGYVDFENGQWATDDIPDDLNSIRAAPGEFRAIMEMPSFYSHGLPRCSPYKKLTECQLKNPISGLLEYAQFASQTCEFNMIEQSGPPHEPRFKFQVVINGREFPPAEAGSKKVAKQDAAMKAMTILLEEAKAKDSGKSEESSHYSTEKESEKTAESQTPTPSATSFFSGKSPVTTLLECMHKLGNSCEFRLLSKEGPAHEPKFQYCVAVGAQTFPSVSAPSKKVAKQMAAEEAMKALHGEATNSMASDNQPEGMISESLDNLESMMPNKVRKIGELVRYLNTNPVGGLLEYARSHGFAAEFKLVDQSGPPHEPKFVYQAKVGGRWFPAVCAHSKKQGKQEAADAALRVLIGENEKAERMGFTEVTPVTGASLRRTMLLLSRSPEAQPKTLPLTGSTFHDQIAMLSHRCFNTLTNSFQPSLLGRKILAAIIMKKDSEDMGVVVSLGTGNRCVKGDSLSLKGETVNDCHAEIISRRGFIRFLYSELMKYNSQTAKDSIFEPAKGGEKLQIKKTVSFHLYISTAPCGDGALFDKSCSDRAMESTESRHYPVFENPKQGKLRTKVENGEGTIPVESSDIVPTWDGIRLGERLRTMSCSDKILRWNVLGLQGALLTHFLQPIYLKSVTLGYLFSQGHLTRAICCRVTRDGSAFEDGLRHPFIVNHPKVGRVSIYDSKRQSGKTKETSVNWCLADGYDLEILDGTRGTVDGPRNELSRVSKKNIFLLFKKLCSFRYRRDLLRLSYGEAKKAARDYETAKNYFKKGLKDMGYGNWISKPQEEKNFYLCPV
Test: co-IP; cells expressing the FLAG-tagged bait fixed with 0.3% formaldehyde, lysed in co-IP buffer (50 mM Tris-HCl pH 7.6, 150 mM NaCl, 1 mM EDTA, 1% NP-40, 0.5% sodium deoxycholate, 0.1% SDS, RNasin Plus) and sonicated; anti-FLAG M2 magnetic beads overnight at 4 °C; immunoblot; for Fig. 10c HEK293T cells unsynchronized or synchronized at M phase (thymidine-nocodazole)
Details: partners not purified

fold increase of the co-IP in M-phase synchronized against unsynchronized cells: > 3 fold
B1: RNase H2A (natural protein, human (endogenous in HEK293T), UniProt O75792 1-299, looked up)
chain: MDLSELERDNTGRCRLSSPVPAVCRKEPCVLGVDEAGRGPVLGPMVYAICYCPLPRLADLEALKVADSKTLLESERERLFAKMEDTDFVGWALDVLSPNLISTSMLGRVKYNLNSLSHDTATGLIQYALDQGVNVTQVFVDTVGMPETYQARLQQSFPGIEVTVKAKADALYPVVSAASICAKVARDQAVKKWQFVEKLQDLDTDYGSGYPNDPKTKAWLKEHVEPVFGFPQFVRFSWRTAQTILEKEAEDVIWEDSASENQEGLRKITSYFLNEGSQARPRSSHRYFLERGLESATSL
notes: RNase H2 subunit A (RNaseH2A, AGS4), endogenous; also called RNase H2 subunit H2A; endogenous RNase H2A; source: endogenous, HEK293T lysate
